Test results taken from patent publication US20230212305A1, “ANTI-ABCG2 ANTIBODIES AND USES THEREOF” (Kenjockety Biotechnology, Inc., priority 2020, published 2023).

Assays:
293T_ABCG2_OX cells = assay type: cell-based, human; conditions: for Killing: cell killing by topotecan on 293T_ABCG2_OX cells, viability relative to IgG control
Protocol: Cytotoxicity Assays. The effect of antibodies on topotecan cytotoxicity was evaluated on 293T_ABCG2_OX cells, 293T cells stably transfected to express ABCG2. Cells were plated in 0.05 mL of Assay Media (DMEM+10% FBS) at 5000 cells/well in white, flat bottom 96-well tissue culture plates. Topotecan was prepared at 2× final assay concentration by serial dilution from 200 uM in assay media containing test antibodies or control antibodies at 100 ug/mL (2× final concentration), or Fumitremorgin C, a small molecule ABCG2 inhibitor at 20 uM (2× final concentration). An equivalent volume (0.05 mL) of the topotecan/antibody mixture was added to the 293T_ABCG2_OX cells in 96-well plates. The plates were then incubated at 37° C., in 5% CO2. After 72-96 hr plates were equilibrated to room temperature and cell viability assessed using Promega® CellTiter-Glo® Luminescent Cell Viability Assay according to the manufacturer's recommended protocol. Luminescence was measured on a Molecular Devices® FlexStation® 3 Multi-Mode Microplate Reader and data analyzed using GraphPad Prism 8.0 software. Half maximal inhibitory concentration (1050) is the concentration of drug (topotecan or other chemotherapy cytotoxic agent) where the response (cell growth) is reduced by 50%.

ABCG2 [1] = target: T1, ABCG2 (Homo sapiens, UniProt Q9UNQ0); assay type: cell-based
T1 construct: expressed in transfected cells
T1 sequence (Q9UNQ0 1-655): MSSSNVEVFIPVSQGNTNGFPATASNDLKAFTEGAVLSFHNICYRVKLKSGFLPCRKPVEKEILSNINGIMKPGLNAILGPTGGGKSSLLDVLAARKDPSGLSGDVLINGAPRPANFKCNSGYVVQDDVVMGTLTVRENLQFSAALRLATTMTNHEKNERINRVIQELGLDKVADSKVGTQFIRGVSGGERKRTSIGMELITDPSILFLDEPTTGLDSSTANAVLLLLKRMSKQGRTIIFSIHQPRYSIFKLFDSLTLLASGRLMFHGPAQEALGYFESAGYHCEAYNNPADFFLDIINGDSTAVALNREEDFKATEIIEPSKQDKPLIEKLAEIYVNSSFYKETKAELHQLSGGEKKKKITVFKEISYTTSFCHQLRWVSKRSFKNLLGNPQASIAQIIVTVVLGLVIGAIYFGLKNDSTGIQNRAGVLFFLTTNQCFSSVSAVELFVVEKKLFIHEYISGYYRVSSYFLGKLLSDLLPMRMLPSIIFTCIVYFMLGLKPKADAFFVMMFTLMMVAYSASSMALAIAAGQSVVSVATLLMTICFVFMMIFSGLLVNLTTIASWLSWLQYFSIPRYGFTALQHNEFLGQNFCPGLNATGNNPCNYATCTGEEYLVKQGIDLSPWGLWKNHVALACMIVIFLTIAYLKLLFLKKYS
Protocol: 293T_ABCG2_OX cells were washed several times and aliquoted into 96-well plates as 50 μl aliquots/well at a cell density of 2×10e6 cells per ml in phenol red-free DMEM. Cells were mixed with 50 μl antibodies or the small molecule inhibitors of ABCG2:-fumitremorgin C (FTC), or its tetracyclic analogue K0143, with a final concentration of 1 μM. Cells were then incubated in the presence of 2.5 μM Mitoxantrone 1 h at 37° C. The cells were subsequently washed twice and finally resuspended in […] PBS. Mitoxantrone fluorescence was measured using excitation at 635 nm and emission at 647 nm. Protocols was measuring efflux blockade are found in Szabo E, et al., PLoS One. 2018 Jan. 17; 13(1):e0190629; Deeken J F, et al., Mol Pharmacol. 2009 November; 76(5):946-56).

cynomolgus ABCG2 = experiment: Flow cytometry binding to 293T cells overexpressing cynomolgus ABCG2; set-up: key to Cynomolgus ABCG2 binding: binding=“+”; non-significant binding=“−”; conditions: for binding to 293T cells overexpressing cynomolgus ABCG2: in words, FIGS. 7-11, 21
Chain of cynomolgus ABCG2 (as listed by the source): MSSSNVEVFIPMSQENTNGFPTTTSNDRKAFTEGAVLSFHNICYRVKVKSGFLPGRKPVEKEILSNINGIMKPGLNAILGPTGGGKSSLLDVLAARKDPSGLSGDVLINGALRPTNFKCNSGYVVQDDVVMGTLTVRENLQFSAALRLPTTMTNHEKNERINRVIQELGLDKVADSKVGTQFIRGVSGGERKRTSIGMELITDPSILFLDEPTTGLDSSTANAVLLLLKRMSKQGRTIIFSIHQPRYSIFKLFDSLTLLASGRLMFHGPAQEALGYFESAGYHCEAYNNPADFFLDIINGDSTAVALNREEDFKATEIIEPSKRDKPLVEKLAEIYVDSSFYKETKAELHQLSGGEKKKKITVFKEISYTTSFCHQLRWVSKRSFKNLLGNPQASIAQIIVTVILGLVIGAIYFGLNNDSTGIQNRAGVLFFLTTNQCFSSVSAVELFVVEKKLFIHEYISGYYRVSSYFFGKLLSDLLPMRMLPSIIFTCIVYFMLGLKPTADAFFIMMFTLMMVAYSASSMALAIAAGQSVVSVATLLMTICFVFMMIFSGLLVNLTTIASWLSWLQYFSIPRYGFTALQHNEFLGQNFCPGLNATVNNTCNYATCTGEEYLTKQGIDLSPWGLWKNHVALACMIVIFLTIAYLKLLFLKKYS
Protocol: (§1) Cell Binding Assays. Antibody binding to cells was evaluated by flow cytometry. 293T cells stably transfected to express human or cynomolgus ABCG2 (293T_ABCG2_OX) were washed once in flow cytometry buffer (PBS+2% FBS+0.02% sodium azide), resuspended at 2×10^6 cells/mL in flow cytometry buffer, and dispensed into 96-well microtiter plates at 0.1 mL/well. Recombinant antibodies were added to cells at 5 ug/mL for initial binding confirmation, or serially diluted from 100 ug/mL in flow cytometry buffer. After incubating cells on ice for 30 min, cells were washed twice with flow cytometry buffer. Bound antibody was detected with PE-labeled F(ab′)2 fragment goat anti-human IgG (Jackson ImmunoResearch) and evaluated on an Attune NxT flow cytometer. EC50 is calculated to be the concentration of antibody that gives half maximal response.

ABCG2 [2] = target: T1, ABCG2; experiment: Flow cytometry binding to 293T cells overexpressing human ABCG2 (293T_ABCG2_OX); set-up: key to Binding by FACS: binding=“+”; non-significant binding=“−”; conditions: for Binding by FACS / Kd: 293T_ABCG2_OX cells; for Kd: read-out: Affinity for human ABCG2; for binding to 293T cells overexpressing human ABCG2: in words, FIGS. 7-11, 21
Protocol: as §1

B1: G2.420 rat: anti-ABCG2 antibody raised in rat (antibody, V domains shown)
VH: SVQLMESGPGLVQPSQTLSLTCTVSGFSLNSYNVNWVRQPPGKGLEWIAAISSGGSTYYNSVLKSRLSITRDTSKSQVFLKMNSLQTEDTAMYFCARSGYYSSYMNWGQGVMVTVSS
VL: DVVMTQTPPTLSATIGQSVSISCRSSQSLLHSTGNTYLNWLLQRPGQPPQLLIYLVSRLEYGVPNRFSGSGSGTDFTLKISGVEAEDLGVYYCAQSTHALNTFGAGTKLELK
effect on topotecan cytotoxicity on 293T_ABCG2_OX cells (293T_ABCG2_OX cells): significantly increased the cytotoxic activity of topotecan
Block Efflux (ABCG2 [1]): +
Cynomolgus ABCG2 binding (cynomolgus ABCG2): +
Binding by FACS (ABCG2 [2]): +

B2: G2.173 mouse: anti-ABCG2 antibody raised in mouse, listed in Table 2 (antibody, V domains shown)
VH: QVQLQQSGADLVRPGASVKLSCTASGFNIKDDYVHWVKQRPEQGLEWIGRIDPANGNTRYAPKFRGKATMTADTSSNTAYLQLSSLTSADTAVYYCSPPLWVGGFAYWGQGTLVTVSS
VL: DVVMTQTPLSLPVSLGDQASISCRSSQSLVHSDVNTYLHWYLQRPGQSPKLLIYKVSNRFSGVPDRFSGSGSGTDFTLKISRVESEDLGIYFCSQTTHVPYTFGGGTKLEIK
Killing (293T_ABCG2_OX cells): − (≥75% of IgG control)
Block Efflux (ABCG2 [1]): −
Cynomolgus ABCG2 binding (cynomolgus ABCG2): −
Binding by FACS (ABCG2 [2]): +

B3: G2.173 Humanized 2: humanized version of anti-ABCG2 antibody G2.173 (antibody, V domains shown)
VH: EVQLVQSGAEVKKPGASVKVSCKASGFNIKDDYVHWVRQAPGQGLEWIGRIDPAQGNTRYAPKFRGRATMTADTSISTAYMELSRLRSDDTAVYYCSPPLWVGGFAYWGQGTLVTVSS
VL: DVVMTQSPLSLPVTLGQPASISCRSSQSLVHSDVNTYLHWYQQRPGQSPRLLIYKVSNRFSGVPDRFSGSGSGTDFTLKISRVEAEDVGVYFCSQTTHVPYTFGGGTKLEIK
Killing (293T_ABCG2_OX cells): − (≥75% of IgG control)
Block Efflux (ABCG2 [1]): −
Cynomolgus ABCG2 binding (cynomolgus ABCG2): −
Binding by FACS (ABCG2 [2]): +

B4: G2.173 Humanized 1: humanized version of anti-ABCG2 antibody G2.173 (antibody, V domains shown)
VH: EVQLVQSGAEVKKPGASVKVSCKASGFNIKDDYVHWVRQAPGQGLEWIGRIDPANGNTRYAPKFRGRATMTADTSISTAYMELSRLRSDDTAVYYCSPPLWVGGFAYWGQGTLVTVSS
VL: DVVMTQSPLSLPVTLGQPASISCRSSQSLVHSDVNTYLHWYQQRPGQSPRLLIYKVSNRFSGVPDRFSGSGSGTDFTLKISRVEAEDVGVYFCSQTTHVPYTFGGGTKLEIK
Killing (293T_ABCG2_OX cells): − (≥75% of IgG control)
Block Efflux (ABCG2 [1]): −
Cynomolgus ABCG2 binding (cynomolgus ABCG2): −
Binding by FACS (ABCG2 [2]): +

B5: G2.173 Humanized 3: humanized version of anti-ABCG2 antibody G2.173 (antibody, V domains shown)
VH: EVQLVQSGAEVKKPGASVKVSCKASGFNIKDDYVHWVRQAPGQGLEWIGRIDPASGNTRYAPKFRGRATMTADTSISTAYMELSRLRSDDTAVYYCSPPLWVGGFAYWGQGTLVTVSS
VL: DVVMTQSPLSLPVTLGQPASISCRSSQSLVHSDVNTYLHWYQQRPGQSPRLLIYKVSNRFSGVPDRFSGSGSGTDFTLKISRVEAEDVGVYFCSQTTHVPYTFGGGTKLEIK
Killing (293T_ABCG2_OX cells): − (≥75% of IgG control)
Block Efflux (ABCG2 [1]): −
Cynomolgus ABCG2 binding (cynomolgus ABCG2): −
Binding by FACS (ABCG2 [2]): +

B6: G2.318 rat: anti-ABCG2 antibody raised in rat (antibody, V domains shown)
VH: EVKLLESGPGLVKPSQSLSLTCSVTGYTITSGYDWSWIRKFPGNKMEWMGYISYSGWTNYNPSLRSRISISRDTSKNQFFLQLNSVTTEDTATYYCARVRGYNPFAYWGQGTLVTVSS
VL: DIVMTQSPSLLSASVGDRVTLSCKAGQNINNYLAWYQQKLGEAPKLLIYNANSLQTGIPSRFSGSGSGTDFTLTISSLQPEDVATYFCQQYNSWTTFGSGTKLEIK
Killing (293T_ABCG2_OX cells): + (viability ≥30% and <50% of IgG control)
Block Efflux (ABCG2 [1]): +
efflux inhibition activity (ABCG2 [1]): strong efflux inhibition activity
Cynomolgus ABCG2 binding (cynomolgus ABCG2): +
Binding by FACS (ABCG2 [2]): +
Kd (ABCG2 [2]): 41 nM

B7: G2.320 rat: anti-ABCG2 antibody raised in rat (antibody, V domains shown)
VH: EVQLEESGPGLVKPSQSLSLTCSVTGYTITSGYDWTWIRKFPGNKMEWMGYISYSGFTNYNPSLRSRISITRDTSKNQFFLQLNSVTTEDTATYYCTRTRGYNPFAYWGQGASVSSAS
VL: DIVMTQSPSLLSASVGDRVTLSCKAGRNINNYLAWYQQKLGKAPKLLIYNTNSLQTGIPSRFSGSGSGTDFTLTISSLQPEDVATYFCQQYNSWTTFGSGTKLEIK
Killing (293T_ABCG2_OX cells): + (viability ≥30% and <50% of IgG control)
Block Efflux (ABCG2 [1]): +
Cynomolgus ABCG2 binding (cynomolgus ABCG2): +
Binding by FACS (ABCG2 [2]): +
Kd (ABCG2 [2]): 58 nM

B8: G2.630 rat: anti-ABCG2 antibody raised in rat (antibody, V domains shown)
VH: EVQLVESGPGLVKPSQSLSLTCSVTGYTITSGYDWTWIRKFPGNKMEWMGYISYSGFTNYNPSLRSRISITRDTSKNQFFLQLNSVTTEDTATYYCTRTRGYNPFAYWGQGTLVTVSS
VL: DVVMTQSPSLLSASVGDRVTLSCKAGRNINNYLAWYQQKLGKAPKLLIYNTNSLQTGIPSRFSGSGSGTDFTLTISSLQPEDVATYFCQQYNSWTTFGSGTKLEIK
Killing (293T_ABCG2_OX cells): + (viability ≥30% and <50% of IgG control)
Block Efflux (ABCG2 [1]): +
Cynomolgus ABCG2 binding (cynomolgus ABCG2): +
Binding by FACS (ABCG2 [2]): +

B9: G2.643: Anti-G2 antibody raised in rats (antibody, V domains shown)
VH: VNLVESGPELVKPGTSVKISCKASGYRFTSYYVHWVKQRPGQGLEWIGWIFPGSDNTKYNEKFKGKATLTADTSSSTAYMQLSSLTSEDSAVYFCASIYYGYDGTLYFDYWGQGTSVTVSS
VL: DIVMTQSHTFMSTSVGDRVSVTCKASQNVGNNVAWYQQKPGQSPNALIYSASYRYSGVPDRFTGSGSGTDFTLTISNVQSEDLAEYFCQQYDRYPLTFGGGTKLEIK
effect on topotecan cytotoxicity on 293T_ABCG2_OX cells (293T_ABCG2_OX cells): significantly increased the cytotoxic activity of topotecan
binding to 293T cells overexpressing cynomolgus ABCG2 (cynomolgus ABCG2): strong binding
binding to 293T cells overexpressing cynomolgus ABCG2 (cynomolgus ABCG2; listed as G.643): did not show significant binding
binding to 293T cells overexpressing human ABCG2 (ABCG2 [2]): strong binding
binding to 293T cells overexpressing human ABCG2 (ABCG2 [2]; listed as G.643): did not show significant binding
